Our source for the average donor fluorescence lifetime (donor-only control 3.02 ns) values is PMC4592070.

The target in this experiment is ErbB1-mCitrine (UniProt P00533). The experiment is described as follows: FRET or BRET; confocal time-domain FLIM-FRET in live COS-7 cells at 37°C; donor ErbB1-mCitrine, acceptor an mCherry-labeled PTP1B chimera; cells starved overnight, recorded 2 min before and 14 min after EGF (100 ng/mL). (BRET reads energy transfer from a luciferase to a nearby fluorophore.)

As to mCherry-PTP1B^D/A-ER (enzyme), the average donor fluorescence lifetime (donor-only control 3.02 ns) is 2.89 ns. The result for mCherry-PTP1B^D/A-OMM (enzyme) reads 2.96 ns.
